This data set is described as follows: soluble on expression in E. coli; label from the status in PepcDB or PDB records.
As to “MSIMSYTGGTVVAMAGDECVCIASDLRIGEQMTTIATDQKKVHKVTDKVYVGLAGFQSDARTVLEKIMFRKNLYELRENRNIKPQVLSEMISNLAYQHRFGSYFTEPLVAGLDDTNKPYICCMDTIGCVSAPRDFVAVGTGQEYLLGVCENFWRENMKPDELFEATAQSILSCLERDAASGWGAVVYTITKDKVNVSTIKARMD”, the “soluble on expression in E. coli” value was “not soluble”.

Consider “MSLAIPFKRINLNLILHLDALLSERSVSAAAEKVFVSQPAMSSSLKQLRELFKDPLLIPGKGEYFLSPKAKELQPQLEQVMFFIRNILQPNERFDPFQTKRSFKIALPDYVELILLPSLMAALEKLPHIVIETTIQSMADDPHLFIDENVDLAIGAINENSLSAQLKVEKLYEEEIICFASKNNPLINRPLSLEDYISNKHIAFSFNQERYSHSAEYLYKRKLVRNDMLFVKNILPAIFAVANSDAVISTAPSFLINMFARQFNLGMQPLPFNLEPTPIYLVTHSKSQYDEGVSWLAKLVSSSIKSPSEGHHHHHH”, for which the “soluble on expression in E. coli” value is reported as “soluble”.

As for “MVDSKKRPGKDLDRIDRNILNELQKDGRISNVELSKRVGLSPTPCLERVRRLERQGFIQGYTALLNPHYLDASLLVFVEITLNRGAPDVFEQFNAAVQKLEEIQECHLVSGDFDYLLKTRVPDMSAYRKLLGETLLRLPGVNDTRTYVVMEEVKQSNRLVIKTR”, the “soluble on expression in E. coli” value is reported as “not soluble”.

For “MGSDKIHHHHHHMTMQPKYRELLLDEDVRRWFENLKAKSVLTATVALRNLGHYCELTGTTPHGILNKARANEKDFRYEFTDFVRKMEKEGKAGSYIARFKKVILSWLKFNDIRLQLTVNIAGENETPTIVNERVPSKEELARILRKATSRGRVAIAIMAFSGLRPESLGDYEGTDGLRLGDLKELKLSDEIQFDKIPATVMVKSKLSKARHHYFSFIGEEGTTYIREYLDERRKQGEELTYESPLLQFDVRGVKKNAFLRTTLVTRDIREAIEQAGLKMRPYVLRAYFSTALDIAESKGLISHPWRQFIMGHKGDIEARYSTNKRLPPDIIDEMRESYNKCTKFLETRISDVSEENARLYLQQQLLSAVGYRQDEIDKMNLAETSTEDFQKLLRDKVAGAMASNGSKQRLVSMNEIEKLLGEGYEFQAVLPNGKAIMKMPF”, the “soluble on expression in E. coli” value is “not soluble”.

On to “MPQGRGDGGVRMAAISLTKVRETAPALVDLYKTAGVSLTKHGMAGTRAAVYLVVDYSGSMKPYYKDGSVQALADRVLSLSAHLDDDGIVPVVFFSTDVDAVTEIALADHQGRIERIVAGLGHMGKTSYHLAMDAVIDHYLDSGARHPALVVFQTDGGPINRLAAERYLCKAAPLPLFWQFVGFGDPDSRQFEYLRKLDELAVPGKRVIDNAGFFHAGRDPRKVTDAELYDRLVGEFPQWLAAARAQGIARPSLEHHHHHH”, for which the “soluble on expression in E. coli” value is recorded as “not soluble”.

In the case of “MGSDKIHHHHHHMEEYFNGLLKEVDQRMATTAPGMDGKEVIGVCREMVSYLKGKNRELKEYALAHPFAGDAKEILYFKYYKPALTGRLLYYYRVYQIESGCPACLRVAEPYYRKAMERAERMMERYLPFYQYYHSGATYRDSYYFLRAKGELSPESGSFVLDEEAEFSTGYDILAARLISVEMLLVHLSRRMERAAQGTETEAVPEKEHRWTNTKVAAILLVYGIHVTGSVDEGNAEIGELAALFEKHFHVDLGNVYHAFGRLRGQQNPTAFLDEMKERLLKKMRDMDSR”, the “soluble on expression in E. coli” value was “not soluble”.

With “MHHHHHHENLYFQSNAMGSTRPIDGLTDEDIREILTRYKKIALVGASPKPERDANIVMKYLLEHGYDVYPVNPNYEEVLGRKCYPSVLDIPDKIEVVDLFVDPAKAWRFVVYAIKKGAKVVWFQYNTYYPLAARQAKEAGLIIVANRCMMREHERLLGEK”, the “soluble on expression in E. coli” value was “soluble”.

As to “MAHHHHHHMLRIYDPKETVAFYEKNFGMINIHTYHFDEYNFSLYFLITPPYDEEERKKIPPPNTIESEQYLWNLKTVCLELTHNHNSTEKLSNGNNDNDRGFGHIAFNCQDVTQFCDYLFKEKKVNFHKLPHETKMKSIGFALDPNDYWIEIVKRSSEVKWKDKEGIANFSQTMIRVKNPEKSLYFYLHILGMKLVHIKHASDFSLYFLKSPYVEGNKGGDISTKEKPEGEQNLPPYNFEELKKAYQSDEDYENLKTSWEPVLELTHNHGTENDDQFAYHNGNTEPRGFGHIGFLVDDLANYCQELEKLGIPFKKKIHEGQMNNIAFVYDPDNYLVELIQRGTTFGRN”, the “soluble on expression in E. coli” value is “not soluble”.

For the sequence “GPGSMKGCCRLLSAAEAASLIRRIGPFAVHRGEATGVIEILSGDPNHPVKKLNLLGLAYAAALTELSELLSEELNAEARVAIFAARDGCSFSAGIDLKELSGMRPPSGSGAAATAAASSGPKAPAMLLQHQHRVVRTFQDGISSLARCRIPIIAAIDGHCIGGATSVASSCDVRYTTTRATFSVKEAAVGLAADIGVLQRLPAIIGEGRTRELAFTCRDFSGVEAKAMGFVEEVCADYPALLAHARKRAAQIAANSPLGVQNTKLILNWERERAAQTSLEYQAAINAFSLHCSDIPEAARAFAERREPVFTDYMVNPRGGPPHSRQS”, the “soluble on expression in E. coli” value is “not soluble”.

Turning to “MSLTRISELPPQIRQEIEQLDQYIQKQVQISHHLKADTIDHDELIDSIPRDVAYLLKSESATSQYLKQDLKKISSFKSLIDEDLLDTQTFSVLLQQLLTPGSKISSNDLDKFFQKKIHLYEKKLEDYCRILSDIETAVNGIDTDLFGAPNNPNSTAITADLGSSEAENLLQLKTGLAAIVSTVIEEFTLFMDIAERIAVLHQKTKTLASLSEGHHHHHH”, the “soluble on expression in E. coli” value is recorded as “soluble”.

For the sequence “MNEMTLLYSPSCWVPGKNRDEVMNDFFAGIKNAFEALKNDEKIPRKENVAYGMEENQKVDIWGDASDKLLIFIHGGYWAAGTRKDCLTPARCALNNEYAFASVGYGLSTEGRTLTETVEDVVNGVDFILKLYPNVSNVLVGGHSAGAHLAMNAVARLRNPRIRGLLLFSGCYFLEELIGTEIGTDINLTTDQAKLNSCDLSKLDGLKLDSLVILGLQEAPKLIEQNRDFVAQQGQSRIEEFPNSGHYTIMTNLLNHTSGEYLAMEKFLKNF”, the “soluble on expression in E. coli” value is “not soluble”.

As for “MGSDKIHHHHHHMASSGTEHDAMRARLVDVAQAIVEERGGAGLTLSELAARAGISQANLSRYFETREDLMEAIADYWFHPMVEIMEDVLASDLPPRRKMYEFFARRFVVMRRKWEADPVKLQTYIEVGNDYFEQVRSYIDLADHYLGEIIGEAMSDGAFSGLEVDETISLVNQMCAPYCALNTMTTFMERLSEDKLARIVDAVFDGLSAQDRGARSLTGLRAA”, the “soluble on expression in E. coli” value is “not soluble”.

As for “MGSDKIHHHHHHMSDDLGSELQLLYLFVHLVNAGSFSQAAKELDMPIATVSRKLAKLEEKLDKQLFMRSTRKLRLTEEGLALFQRYQSVIAQFDELSGVGSDKPEGTLRIAAPISIISIIFIRALNEFGRLYPDIRLHISQSNELVDLIDKGIDVAIVGGAQPDSSWVSSTLGELDYCLFATPEYLAQAPKLTHPNDLEAHQLIKVWPLFNWHLKHPNGESFYFNGPTKLTLTDLHGAIESALDHGGILYGPELFVKQQIKEDRLKVLLPEWVGEQRRISILYHQRSQQPLKVRVFIEFMQSKAPELFSMA”, the “soluble on expression in E. coli” value is reported as “not soluble”.

As for “MLSHMVLTRQDIGRAASYYEDGADDYYAKDGDASEWQGKGAEELGLSGEVDSKRFRELLAGNIGEGHRIMRSATRQDSKERIGLDLTFSAPKSVSLQALVAGDAEIIKAHDRAVARTLEQAEARAQARQKIQGKTRIETTGNLVIGKFRHETSRERDPQLHTHAVILNMTKRSDGQWRALKNDEIVKATRYLGAVYNAELAHELQKLGYQLRYGKDGNFDLAHIDRQQIEGFSKRTEQIAEWYAARGLDPNSVSLEQKQAAKVLSRAKKTSVDREALRAEWQATAKELGIDFS”, the “soluble on expression in E. coli” value is “soluble”.

Consider “MGSSHHHHHHSSGLVPRGSMGFKVKLEKRRNAINTCLCIGLDPDEKDIENFMKNEKENNYNNIKKNLKEKYINNVSIKKDILLKAPDNIIREEKSEEFFYFFNHFCFYIINETNKYALTFKMNFAFYIPYGSVGIDVLKNVFDYLYELNIPTILDMKINDIGNTVKNYRKFIFEYLKSDSCTVNIYMGTNMLKDICYDEEKNKYYSAFVLVKTTNPDSAIFQKNLSLDNKQAYVIMAQEALNMSSYLNLEQNNEFIGFVVGANSYDEMNYIRTYFPNCYILSPGIGAQNGDLHKTLTNGYHKSYEKILINIGRAITKNPYPQKAAQMYYDQINAILKQNMES”, for which the “soluble on expression in E. coli” value is on record as “soluble”.

In the case of “MSKVPVVGIVAALLPEMGIGFQGNLPWRLAKEMKYFREVTTLTNDNSKQNVVIMGRKTWESIPQKFRPLPKRINVVVSRSFDGELRKVEDGIYHSNSLRNCLTALQSSLANENKIERIYIIGGGEIYRQSMDLADHWLITKIMPLPETTIPQMDTFLQKQELEQRFYDNSDKLVDFLPSSIQLEGRLTSQEWNGELVKGLPVQEKGYQFYFTLYTKKLEHHHHHHHH”, the “soluble on expression in E. coli” value is “soluble”.

For the sequence “MGSDKIHHHHHHMDFIEVYPNAIPDDLCDRLILAFEKHSGVVDGQTGNGVDLEKKISRDLTLDNFTDLQPLKNELLSYTLKGTADYFSQYAMALMGAVAVSVSDEQGQAVTLTPSNFERLGKPRAEALVKYLYRSGSINIQKYQKNKGGYPHWHSEQFPQLSHNEALHRVVLYMFYLNDVEEGGETEFYYQQRKISPKKGTMVIAPAGFTHSHRGNMPISNDKYIATSWVMFNRAEQLYAVYA”, the “soluble on expression in E. coli” value is on record as “not soluble”.

With “MAEHECVQLVPIFSELGSEQLDIIESIVRHHHYPAGSTLFGADDPLDSLMIVANGQVKVYQLAANGREQLLYLLQTGDIDGEAALFENQRRTSFGEALVPTDVCSIRRSDFQDLMQKYPSISINVLNVFGKRLNQLERQTTSTATESVEARLANYITETAAALKTDTFKLPLKKKDLATFLGTTPESISRKLALFERQGLITQKPGKVIEINDADQLLLTE”, the “soluble on expression in E. coli” value is “soluble”.

For the sequence “QEKSARDLMIAVDLSGSMAVEDFTLPIATNELTNRAKNDTDSSATKSSTNDTGKGEKVNRLVAVKHVLNAFVKSREHDRLGLILFGDAPYLQAPFTDDIATWQALLNESDIGMAGQSTAFGDAIGLAISVFQQSDTQNRVLIVLTDGNDTASKVPPVEAAKVAAARDIKIYTIAIGDPSAVGEEKVDLEVLQAMAEITQGKSFQALNSEELLKVYAEI”, the “soluble on expression in E. coli” value is “not soluble”.

For “MGSDKIHHHHHHVNELSADVVILGGGLVGMTLAIGLAKAGISSHVVDNSDPAAQTAEGFDGRASAISTASWNLYANLGMADELAPKGCPIEAIAVTDAMKPGRIDFKPGEGDGSLGRMYANRDLRIAMYAAAAREEAITFHTNANVIHRERGEHGVSVTLADGRILKGRLLVGAEGRRSPTRDEAGFTPARWDYGHRAIIAGLTHEKPHGNVAWEVFYPAGPFALLPLLDDEDGSHRSALVWTVAEKDASAVLAMPEPMFLDEVSKRMHEIFGEIRLASPRSSYPLNFHHTARIVEQRLALVGDAAHGMHPIAGQGLNVGLRDVAALVEVLADGVRLGLDVGDAQLLARYERWRAADTFMVATATDVLTRLFGLPGRVPSAIRRLGMAGVQRMGPLKRWFMDEARGMSGDLPKLLRAA”, the “soluble on expression in E. coli” value was “not soluble”.

As to “EKAEDCWELQISPELLAHGRQKILDLLNEGSARDLRSLQRIGPKKAQLIVGWRELHGPFSQVEDLERVEGITGKQMESFLKANILGLAAGQ”, the “soluble on expression in E. coli” value was “soluble”.

For the sequence “MGSDKIHHHHHHLIPVLDTDAWVEKLLSTRRSAEGKILAFYEHRMEAICRDPRLLLMPADDHLAHRGDGVFESMKFEGRRLYQLDAHLERMERSARGIYLTPPCTQSVLRDIVLQVARAADTPDGCIRILLGRGPGGFGIDPAECPVPSLYVVAYSLTPKPEEWYEKGVTAFRTSIPAKQGYLATIKNANYIPNVLMKLEARSRGCDIPVSFDENDFIAEGPTENLCLVDADGTLVVPEFTNALSGTTIMRVIDLVRDEMNVAFRKVREDELYRAAEVMVLGTTTECVSVVSFEGQPVGGGRPGPVARRFRELLRRDLAENGISF”, the “soluble on expression in E. coli” value is “not soluble”.

These data come from the DeepSol protein solubility set.
